Data: patent publication US20180030135A1, “HUMAN MONOCLONAL ANTIBODIES AGAINST OREXIN RECEPTOR TYPE 1” (INSERM (INSTITUT NATIONAL DE LA SANTÉ ET DE LA RECHERCHÉ …, priority 2015, published 2018)

T1: mouse OX1R (mouse, UniProt P58307 1-416)
T1 construct: whole, on cells; Legend says HEK-mouseOX1R, the text says CHO cell lines transfected with OX1R of mouse or rat; also called HEK-mouseOX1R; OX1R of mouse
T1 sequence (looked up): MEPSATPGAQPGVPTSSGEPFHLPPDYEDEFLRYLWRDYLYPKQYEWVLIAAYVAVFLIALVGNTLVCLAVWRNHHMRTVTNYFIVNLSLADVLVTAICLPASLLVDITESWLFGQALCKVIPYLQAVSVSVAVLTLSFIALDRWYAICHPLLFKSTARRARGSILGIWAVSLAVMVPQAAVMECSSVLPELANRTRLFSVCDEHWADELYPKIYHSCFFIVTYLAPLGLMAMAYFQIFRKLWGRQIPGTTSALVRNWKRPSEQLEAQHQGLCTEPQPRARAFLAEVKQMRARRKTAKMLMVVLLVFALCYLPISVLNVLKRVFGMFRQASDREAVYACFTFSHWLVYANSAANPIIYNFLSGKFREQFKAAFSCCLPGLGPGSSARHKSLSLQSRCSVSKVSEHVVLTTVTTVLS

T2: orexin receptor type 1 (OX1R) (human, UniProt O43613 1-425)
T2 construct: whole, on cells; also called HCTR1; hypocretin receptor type 1
T2 sequence (looked up): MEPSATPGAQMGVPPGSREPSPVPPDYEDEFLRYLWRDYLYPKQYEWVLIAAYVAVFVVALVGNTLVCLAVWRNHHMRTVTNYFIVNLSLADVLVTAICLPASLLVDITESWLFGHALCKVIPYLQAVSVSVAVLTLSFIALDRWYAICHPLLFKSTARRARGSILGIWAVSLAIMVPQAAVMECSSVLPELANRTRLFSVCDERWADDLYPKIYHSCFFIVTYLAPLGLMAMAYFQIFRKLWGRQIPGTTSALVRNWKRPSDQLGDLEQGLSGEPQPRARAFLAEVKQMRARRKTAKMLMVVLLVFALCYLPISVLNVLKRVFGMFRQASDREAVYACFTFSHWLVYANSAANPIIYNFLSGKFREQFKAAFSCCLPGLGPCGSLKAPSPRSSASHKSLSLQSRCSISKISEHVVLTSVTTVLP

T3: rat OX1R (rat, UniProt P56718 1-416)
T3 construct: whole, on cells; also called CHO-ratOX1R; OX1R of rat
T3 sequence (looked up): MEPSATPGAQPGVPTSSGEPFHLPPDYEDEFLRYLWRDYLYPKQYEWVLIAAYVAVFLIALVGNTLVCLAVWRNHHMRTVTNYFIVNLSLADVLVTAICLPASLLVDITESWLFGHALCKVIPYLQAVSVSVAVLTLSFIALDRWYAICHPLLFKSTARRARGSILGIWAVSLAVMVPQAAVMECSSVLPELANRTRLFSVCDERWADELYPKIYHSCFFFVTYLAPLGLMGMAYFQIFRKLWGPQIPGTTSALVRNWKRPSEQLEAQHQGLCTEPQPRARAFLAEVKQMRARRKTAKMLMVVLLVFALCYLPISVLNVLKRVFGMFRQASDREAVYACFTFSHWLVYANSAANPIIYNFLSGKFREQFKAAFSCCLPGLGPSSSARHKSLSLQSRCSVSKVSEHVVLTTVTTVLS


Columns and labels:
mouse OX1R = molecular target: T1, mouse OX1R; assay: told from effects on cells transfected with mouse OX1R (FIG. 4)
[1] = molecular target: T2, orexin receptor type 1 (OX1R); assay: competitive inhibition of 125I-OxA binding to HEK-OX1R cells
rat OX1R = molecular target: T3, rat OX1R; assay: told from effects on cells transfected with rat OX1R (FIG. 4)
SW48 cells = assay: Cell growth of colon cancer cell line SW48; assay type: cell-based; conditions: 0.1 μM, 48 h
Protocol: (§1) A. SW48 and AsPC-1 cells. B. LoVo and HCT-116 cells. Cells were treated for 48 h with 0.1 μM of each compound and then cells were counted. Results were expressed as the percentage of untreated cell number (Control).
(§2) We have tested the ability of antibodies to inhibit the cellular growth in cancer cell lines derived from colon cancer (SW48, LoVo and HCT-116 cells) and pancreas cancer (AsPC-1 cells). […] D4 and H7 have a weak effect. […] As previously described (see above) orexins are able to induce a mitochondrial apoptosis in cancer cell lines. We test the ability of antibodies to induce apoptosis in HEK-OX1R cells and colonic cancer cell line LoVo. […] This effect was dose-dependent. Indeed when HEK-OX1R cells were treated with 0.01μM of C2 antibody, cell apoptosis was only of 6±0.7% of total cells.

HEK-mouseOX1R = assay: Cell growth / apoptosis of cells transfected with mouse OX1R; assay type: cell-based; conditions: 0.1 μM, 48 h, FIG. 4
Protocol: Cells were treated for 48 h with 0.1 μM of each compound and then cells were counted. Results were expressed as the percentage of untreated cell number (Control).
The development of antibodies directed against OX1R were produced by a phage display strategy and the antibody selection was performed by using HEK and HEK stably expressing OX1R (HEK-OX1R) cell lines. As a first step, a batch of 7 different antibodies named B4, B10, C1, C2, D4, E7 and H7 was tested for their ability to inhibit the cell growth of HEK-OX1R. […] In contrast, B4, B10, D4, E7 and. […] As previously described orexins (A & B) induced a mitochondrial apoptosis mediated by an entirely novel mechanism, not related to Gq-mediated phospholipase C activation. In fact, orexins induced the tyrosine phosphorylation of two immunoreceptor tyrosine-based inhibitory motifs (ITIMs) located in the OX1R sequence. The resulting phosphorylated receptor could then recruit and activate the phosphotyrosine phosphatase, SHP-2, which is responsible for mitochondrial apoptosis, involving cytochrome c release from mitochondria to cytosol and caspase-3 and caspase-7 activation. Here, we tested the effect of SHP inhibitor (NSC 87877) on the ability of anti-OX1R to inhibit the cellular growth of HEK-OX1R (FIG. 3).

AsPC-1 cells = assay: Cell growth of pancreas cancer cell line AsPC-1; assay type: cell-based; conditions: 0.1 μM, 48 h
Protocol: as §1, §2

LoVo cells = assay: Cell growth of colon cancer cell line LoVo; assay type: cell-based; conditions: 0.1 μM, 48 h
Protocol: as §1, §2

[2] = system: HEK-OX1R cells expressing recombinant OX1R; assay: Apoptosis in HEK-OX1R cells (annexin V-PE binding, Guava nexin kit); assay type: cell-based, human; conditions: 0.1 μM, 48 h
CHO-ratOX1R = assay: Cell growth / apoptosis of cells transfected with rat OX1R; assay type: cell-based; conditions: 0.1 μM, 48 h, FIG. 4
[3] = system: HEK-OX1R cells expressing recombinant OX1R; assay: Cell growth of HEK-OX1R cells (cell counting); assay type: cell-based, human; conditions: 0.1 μM, 48 h

Molecule | binding result (mouse OX1R) | IC50 [1] [µM] | binding result (rat OX1R) | cell growth inhibition in SW48 cells (SW48 cells) | promotion of apoptosis of cells transfected with OX1R of mouse (cross reaction) (HEK-mouseOX1R) | cell growth inhibition in AsPC-1 cells (AsPC-1 cells) | cell growth inhibition in LoVo cells (LoVo cells) | apoptosis in HEK-OX1R cells, % of total cells [2] [%] | promotion of apoptosis of cells transfected with OX1R of rat (cross reaction) (CHO-ratOX1R) | inhibition of HEK-OX1R cellular growth in the presence of SHP inhibitor NSC 87877 ([3]; 50 μM NSC 87877) | reduction of HEK-OX1R cell number (cellular growth inhibition) ([3]; cells counted, versus untreated cells)
C1 antibody (antibody, V domains shown, Human anti-OX1R antibody from phage display) VH: EVQLVESGGSLVKPGGSLRLSCAASGFTFSNYYMNWVRQAPGKGLEWISYISGSSRNIYYADFVKGRFTISRDNATNSLYLQMNSLRAEDTAVYYCVRSNYDGMDVWGRGTLVTVSS VL: QSVLTQPASVSGSPGQSITISCAGTSSDVGGSNYVSWYQQHPGKAPKLMIYSDSYRPSGVSNRFSGSKSGNTASLTISGLQAEDEADYYCSSYTYYSTRVFGGGTKLAVLG | binds | ~5 | binds | – | – | – | – | – | – | – | –
C1: human monoclonal anti-OX1R antibody from phage display; VH SEQ ID NO:1, VL SEQ ID NO:2 (antibody, V domains shown, Synthetic VH sequence of C1; Synthetic VL sequence of C1) VH: EVQLVESGGSLVKPGGSLRLSCAASGFTFSNYYMNWVRQAPGKGLEWISYISGSSRNIYYADFVKGRFTISRDNATNSLYLQMNSLRAEDTAVYYCVRSNYDGMDVWGRGTLVTVSS VL: QSVLTQPASVSGSPGQSITISCAGTSSDVGGSNYVSWYQQHPGKAPKLMIYSDSYRPSGVSNRFSGSKSGNTASLTISGLQAEDEADYYCSSYTYYSTRVFGGGTKLAVLG | – | – | – | inhibit the cell growth in SW48 cells similarly to OxB | able to promote apotosis | cell growth inhibition similar to OxB effect | inhibit the cell growth in LoVo cells similarly to OxB | 12±1 | able to promote apotosis | totally reversed | about 46%±3
